Legend:
[1] = biological target: T1, human Siglec-7 expressed on human cells (primary monocytes, dendritic cells, macrophages, NK cells, … (human, UniProt Q9Y286 19-467)); assay: cell-based or functional assay
[2] = biological target: T1, human Siglec-7 expressed on human cells …; assay: cell-based or functional assay; remark: listed apart in the source
[3] = biological target: T1, human Siglec-7 expressed on human cells …; assay: FACS, human primary monocytes, 10 ug/ml mAb
[4] = biological target: T1, human Siglec-7 expressed on human cells …; assay: FACS, human primary macrophages, 10 ug/ml mAb
[5] = biological target: T1, human Siglec-7 expressed on human cells …; assay: FACS, human primary dendritic cells, 10 ug/ml mAb
[6] = biological target: T2, Histidine-tagged human Siglec-7 (NovoProtein) (human, UniProt Q9Y286 19-357, limits assumed); assay: SPR (BiaCore T200, 25 C), antibody captured on anti-mouse IgG, Siglec-7-His 10 nM, single-concentration kinetics
T2 construct: Bought protein; also called purified Siglec-7-his tagged protein; not shown: histidine tag
Protocol: SPR data was collected at a rate of 10 Hz at 25′ C on a BiaCore T200 instrument. Data analysis was performed using BiaCore T200 Evaluation Software, version 2.0. HBS-EP+ (100 mM HEPES, 1.5 M NaCl, 30 mM EDTA, 0.5% v/v Surfactant P20, pH 7.4) was used as running buffer and for preparing reagents.
Mouse-derived antibodies (25 nM) against Siglec-7 were captured (60 s contact time, 30 μL/min flow rate, 0 s stabilization time) on a CM5 sensor chip (GE Healthcare) immobilized with anti-mouse IgG. Histidine-tagged human Siglec-7 (NovoProtein) was then flowed over the captured anti-Siglec-7 surface (120 s contact time, 30 μL/min flow rate, 300 s dissociation time). Concentration of antigen ranged from 5 nM to 100 nM, depending on information obtained from an initial screen. Duplicate single-concentration trials were performed and bracketed by a blank (0 nM antigen) sample. The chip surface was regenerated in between cycles using 10 mM glycine-HCl, pH1.7 (60 s contact time, 30 μL/min flow rate, 60 s stabilization time). The resulting SPR signal was obtained as the difference in response from measurements performed on a blank flow cell.
Affinity constants (KD) were calculated from the ratio kd/kₐ. For one antibody (clone 1E8), we validated the single-concentration analysis with a multiple-concentration approach (five concentrations of antigen used, plus one blank).

[7] = biological target: T3, Siglec-7-Fc (plate immobilized) (human, UniProt Q9Y286 19-357, limits assumed); assay: RBC solid adhesion assay, plate-coated Siglec-7-Fc, antibody 0.5 or 1.0 ug/ml; % of RBC binding without antibody
T3 construct: also called Siglec-7-Fc protein; immobilized Siglec-7; not shown: Fc part
Outline: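 Plates coated overnight at RT with 5 μg/ml Siglec-7-Fc and blocked in PBS with BSA and 1 mM CaCl₂. Antibody (0.5 or 1.0 μg/ml) bound 1 h at RT, then RBCs (3.0×10⁶ cells/ml) added for 1 h at RT. Bound RBCs lysed and detected by peroxidase at 450 nm, expressed as % of binding without antibody.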

T1 sequence (Q9Y286 19-467): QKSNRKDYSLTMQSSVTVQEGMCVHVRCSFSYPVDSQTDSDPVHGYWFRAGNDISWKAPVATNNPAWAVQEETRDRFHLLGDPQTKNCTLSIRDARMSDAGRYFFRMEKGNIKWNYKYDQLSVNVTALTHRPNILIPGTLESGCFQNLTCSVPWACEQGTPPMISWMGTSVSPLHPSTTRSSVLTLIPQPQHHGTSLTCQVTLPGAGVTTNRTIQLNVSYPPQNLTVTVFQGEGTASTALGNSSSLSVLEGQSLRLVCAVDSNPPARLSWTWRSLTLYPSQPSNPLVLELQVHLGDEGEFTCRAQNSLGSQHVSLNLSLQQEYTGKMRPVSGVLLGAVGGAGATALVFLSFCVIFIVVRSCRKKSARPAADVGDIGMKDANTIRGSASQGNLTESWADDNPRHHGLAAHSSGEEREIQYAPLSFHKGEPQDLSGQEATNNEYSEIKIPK
T3 sequence (Q9Y286 19-357 limits assumed): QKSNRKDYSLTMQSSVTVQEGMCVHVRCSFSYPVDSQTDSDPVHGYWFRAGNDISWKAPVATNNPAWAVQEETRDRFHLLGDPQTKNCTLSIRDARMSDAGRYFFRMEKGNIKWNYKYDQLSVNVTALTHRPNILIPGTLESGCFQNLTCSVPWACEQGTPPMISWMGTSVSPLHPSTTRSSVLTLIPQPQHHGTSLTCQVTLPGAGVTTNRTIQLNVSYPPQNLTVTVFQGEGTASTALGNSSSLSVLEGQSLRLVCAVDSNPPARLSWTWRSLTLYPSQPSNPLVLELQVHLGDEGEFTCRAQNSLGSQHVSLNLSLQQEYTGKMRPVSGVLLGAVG
T2 sequence (Q9Y286 19-357 limits assumed): as above

B1: anti-Siglec-7 antibody 10G8 (antibody, V domains shown)
VH: EVKLVEFGGALVKPGGSLKLSCAALGFTFSTYAMFRVRQTPEKREEGVASISSGGRYTYYPDSAKDRHPIFRDNARNTLYLQMSSLRSKDTAMYYCVRHSYGSSYWYLDVWGAGTTVTVSS
VL: DIQMTQFPATLSGTPGDRVZLSRRASQSIREYLHWYQQKSHESPRLZIKFASQSICGIPSRFSGSGSGSDFTLSINTVEPEDVGVYYCQKAHNFPYTFGGGTKLEIK
notes: Variable domains assembled from FR and CDR entries
[1]
  Percent Siglec-7 Surface Expression, DCs: 10.5%
  Percent Siglec-7 Surface Expression, Monocytes: 30.9%
  Percent Siglec-7 Surface Expression, U937 cells: 83.8%
[2]
  Percent Siglec-7 Surface Expression, Macrophages: 9.2%
  Percent Siglec-7 Surface Expression, NK cells: 74.7%
[3]
  % Positive: 99.1%
  MFI: 523
[4]
  % Positive: 99.7%
  MFI: 3280
[5]
  % Positive: 99.5%
  MFI: 897
[6]
  Kd: 0.6 nM
[7]
  Percent RBC Binding to Siglec-7: 111%

From patent publication US20200277374A1 (Alector, published 2020)
